From IntAct's records for PubMed 31515488

B1: KAT8 regulatory NSL complex subunit 1 (Homo sapiens), Q7Z3B3 (parent)
chain: MAAMAPALTDAAAEAHHIRFKLAPPSSTLSPGSAENNGNANILIAANGTKRKAIAAEDPSLDFRNNPTKEDLGKLQPLVASYLCSDVTSVPSKESLKLQGVFSKQTVLKSHPLLSQSYELRAELLGRQPVLEFSLENLRTMNTSGQTALPQAPVNGLAKKLTKSSTHSDHDNSTSLNGGKRALTSSALHGGEMGGSESGDLKGGMTNCTLPHRSLDVEHTTLYSNNSTANKSSVNSMEQPALQGSSRLSPGTDSSSNLGGVKLEGKKSPLSSILFSALDSDTRITALLRRQADIESRARRLQKRLQVVQAKQVERHIQHQLGGFLEKTLSKLPNLESLRPRSQLMLTRKAEAALRKAASETTTSEGLSNFLKSNSISEELERFTASGIANLRCSEQAFDSDVTDSSSGGESDIEEEELTRADPEQRHVPLRRRSEWKWAADRAAIVSRWNWLQAHVSDLEYRIRQQTDIYKQIRANKGLIVLGEVPPPEHTTDLFLPLSSEVKTDHGTDKLIESVSQPLENHGAPIIGHISESLSTKSCGALRPVNGVINTLQPVLADHIPGDSSDAEEQLHKKQRLNLVSSSSDGTCVAARTRPVLSCKKRRLVRPNSIVPLSKKVHRNSTIRPGCDVNPSCALCGSGSINTMPPEIHYEAPLLERLSQLDSCVHPVLAFPDDVPTSLHFQSMLKSQWQNKPFDKIKPPKKLSLKHRAPMPGSLPDSARKDRHKLVSSFLTTAKLSHHQTRPDRTHRQHLDDVGAVPMVERVTAPKAERLLNPPPPVHDPNHSKMRLRDHSSERSEVLKHHTDMSSSSYLAATHHPPHSPLVRQLSTSSDSPAPASSSSQVTASTSQQPVRRRRGESSFDINNIVIPMSVAATTRVEKLQYKEILTPSWREVDLQSLKGSPDEENEEIEDLSDAAFAALHAKCEEMERARWLWTTSVPPQRRGSRSYRSSDGRTTPQLGSANPSTPQPASPDVSSSHSLSEYSHGQSPRSPISPELHSAPLTPVARDTPRHLASEDTRCSTPELGLDEQSVQPWERRTFPLAHSPQAECEDQLDAQERAARCTRRTSGSKTGRETEAAPTSPPIVPLKSRHLVAAATAQRPTHR
B2: Spermatogenic leucine zipper protein 1 (Homo sapiens), Q9BXG8 (parent)
chain: MASSAKSAEMPTISKTVNPTPDPHQEYLDPRITIALFEIGSHSPSSWGSLPFLKNSSHQVTEQQTAQKFNNLLKEIKDILKNMAGFEEKITEAKELFEETNITEDVSAHKENIRGLDKINEMLSTNLPVSLAPEKEDNEKKQEMILETNITEDVSAHKENIRGLDKINEMLSTNLPVSLAPEKEDNEKKQQMIMENQNSENTAQVFARDLVNRLEEKKVLNETQQSQEKAKNRLNVQEETMKIRNNMEQLLQEAEHWSKQHTELSKLIKSYQKSQKDISETLGNNGVGFQTQPNNEVSAKHELEEQVKKLSHDTYSLQLMAALLENECQILQQRVEILKELHHQKQGTLQEKPIQINYKQDKKNQKPSEAKKVEMYKQNKQAMKGTFWKKDRSCRSLDVCLNKKACNTQFNIHVARKALRGKMRSASSLR
partner: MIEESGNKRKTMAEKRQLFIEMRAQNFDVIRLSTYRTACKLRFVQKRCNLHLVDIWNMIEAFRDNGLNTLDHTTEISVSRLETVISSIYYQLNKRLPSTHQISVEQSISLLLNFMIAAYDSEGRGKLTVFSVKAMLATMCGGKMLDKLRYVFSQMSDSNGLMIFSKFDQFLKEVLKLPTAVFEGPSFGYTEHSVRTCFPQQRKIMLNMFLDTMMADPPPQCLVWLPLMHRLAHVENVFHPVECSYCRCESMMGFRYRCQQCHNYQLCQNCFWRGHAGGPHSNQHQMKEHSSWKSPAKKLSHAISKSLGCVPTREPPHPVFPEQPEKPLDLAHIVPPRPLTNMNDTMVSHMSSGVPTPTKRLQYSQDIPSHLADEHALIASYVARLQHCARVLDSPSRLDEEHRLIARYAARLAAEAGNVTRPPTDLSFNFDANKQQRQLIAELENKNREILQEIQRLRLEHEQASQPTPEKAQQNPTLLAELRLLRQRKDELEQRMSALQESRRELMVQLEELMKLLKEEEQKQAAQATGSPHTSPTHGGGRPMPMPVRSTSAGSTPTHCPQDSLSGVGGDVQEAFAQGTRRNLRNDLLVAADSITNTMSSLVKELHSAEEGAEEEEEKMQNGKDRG
B3: Serine/arginine-rich splicing factor 4 (Homo sapiens), Q08170 (parent)
chain: MPRVYIGRLSYQARERDVERFFKGYGKILEVDLKNGYGFVEFDDLRDADDAVYELNGKDLCGERVIVEHARGPRRDGSYGSGRSGYGYRRSGRDKYGPPTRTEYRLIVENLSSRCSWQDLKDYMRQAGEVTYADAHKGRKNEGVIEFVSYSDMKRALEKLDGTEVNGRKIRLVEDKPGSRRRRSYSRSRSHSRSRSRSRHSRKSRSRSGSSKSSHSKSRSRSRSGSRSRSKSRSRSQSRSRSKKEKSRSPSKEKSRSRSHSAGKSRSKSKDQAEEKIQNNDNVGKPKSRSPSRHKSKSKSRSRSQERRVEEEKRGSVSRGRSQEKSLRQSRSRSRSKGGSRSRSRSRSKSKDKRKGRKRSREESRSRSRSRSKSERSRKRGSKRDSKAGSSKKKKKEDTDRSQSRSPSRSVSKEREHAKSESSQREGRGESENAGTNQETRSRSRSNSKSKPNLPSESRSRSKSASKTRSRSKSRSRSASRSPSRSRSRSHSRS
B4: Isoform 1 of Aminoacylase-1 (Homo sapiens), Q03154-1 (parent)
chain: MTSKGPEEEHPSVTLFRQYLRIRTVQPKPDYGAAVAFFEETARQLGLGCQKVEVAPGYVVTVLTWPGTNPTLSSILLNSHTDVVPVFKEHWSHDPFEAFKDSEGYIYARGAQDMKCVSIQYLEAVRRLKVEGHRFPRTIHMTFVPDEEVGGHQGMELFVQRPEFHALRAGFALDEGIANPTDAFTVFYSERSPWWVRVTSTGRPGHASRFMEDTAAEKLHKVVNSILAFREKEWQRLQSNPHLKEGSVTSVNLTKLEGGVAYNVIPATMSASFDFRVAPDVDFKAFEEQLQSWCQAAGEGVTLEFAQKWMHPQVTPTDDSNPWWAAFSRVCKDMNLTLEPEIMPAATDNRYIRAVGVPALGFSPMNRTPVLLHDHDERLHEAVFLRGVDIYTRLLPALASVPALPSDS
partner: B4 chain
B5: Protein DBF4 homolog A (Homo sapiens), Q9UBU7 (parent)
chain: MNSGAMRIHSKGHFQGGIQVKNEKNRPSLKSLKTDNRPEKSKCKPLWGKVFYLDLPSVTISEKLQKDIKDLGGRVEEFLSKDISYLISNKKEAKFAQTLGRISPVPSPESAYTAETTSPHPSHDGSSFKSPDTVCLSRGKLLVEKAIKDHDFIPSNSILSNALSWGVKILHIDDIRYYIEQKKKELYLLKKSSTSVRDGGKRVGSGAQKTRTGRLKKPFVKVEDMSQLYRPFYLQLTNMPFINYSIQKPCSPFDVDKPSSMQKQTQVKLRIQTDGDKYGGTSIQLQLKEKKKKGYCECCLQKYEDLETHLLSEQHRNFAQSNQYQVVDDIVSKLVFDFVEYEKDTPKKKRIKYSVGSLSPVSASVLKKTEQKEKVELQHISQKDCQEDDTTVKEQNFLYKETQETEKKLLFISEPIPHPSNELRGLNEKMSNKCSMLSTAEDDIRQNFTQLPLHKNKQECILDISEHTLSENDLEELRVDHYKCNIQASVHVSDFSTDNSGSQPKQKSDTVLFPAKDLKEKDLHSIFTHDSGLITINSSQEHLTVQAKAPFHTPPEEPNECDFKNMDSLPSGKIHRKVKIILGRNRKENLEPNAEFDKRTEFITQEENRICSSPVQSLLDLFQTSEEKSEFLGFTSYTEKSGICNVLDIWEEENSDNLLTAFFSSPSTSTFTGF
B6: Proteasome subunit beta type-1 (Homo sapiens), P20618 (parent)
chain: MLSSTAMYSAPGRDLGMEPHRAAGPLQLRFSPYVFNGGTILAIAGEDFAIVASDTRLSEGFSIHTRDSPKCYKLTDKTVIGCSGFHGDCLTLTKIIEARLKMYKHSNNKAMTTGAIAAMLSTILYSRRFFPYYVYNIIGGLDEEGKGAVYSFDPVGSYQRDSFKAGGSASAMLQPLLDNQVGFKNMQNVEHVPLSLDRAMRLVKDVFISAAERDVYTGDALRICIVTKEGIREETVSLRKD
partner: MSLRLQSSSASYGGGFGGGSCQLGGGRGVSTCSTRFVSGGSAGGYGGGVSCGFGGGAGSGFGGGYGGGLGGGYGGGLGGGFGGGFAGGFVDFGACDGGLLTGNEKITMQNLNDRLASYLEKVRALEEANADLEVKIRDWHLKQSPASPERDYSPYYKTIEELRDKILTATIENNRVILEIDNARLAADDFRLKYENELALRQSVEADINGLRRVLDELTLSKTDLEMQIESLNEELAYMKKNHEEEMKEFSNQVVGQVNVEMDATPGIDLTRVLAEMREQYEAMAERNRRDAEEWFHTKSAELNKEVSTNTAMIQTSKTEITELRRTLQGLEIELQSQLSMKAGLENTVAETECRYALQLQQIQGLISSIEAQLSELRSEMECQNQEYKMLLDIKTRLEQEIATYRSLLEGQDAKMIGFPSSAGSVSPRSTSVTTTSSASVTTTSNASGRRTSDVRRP

Variants of: B1
Settings: with cdr2_human CDR2, Q01850
cdr2_human CDR2, Q01850, sequence (Q01850 whole entry): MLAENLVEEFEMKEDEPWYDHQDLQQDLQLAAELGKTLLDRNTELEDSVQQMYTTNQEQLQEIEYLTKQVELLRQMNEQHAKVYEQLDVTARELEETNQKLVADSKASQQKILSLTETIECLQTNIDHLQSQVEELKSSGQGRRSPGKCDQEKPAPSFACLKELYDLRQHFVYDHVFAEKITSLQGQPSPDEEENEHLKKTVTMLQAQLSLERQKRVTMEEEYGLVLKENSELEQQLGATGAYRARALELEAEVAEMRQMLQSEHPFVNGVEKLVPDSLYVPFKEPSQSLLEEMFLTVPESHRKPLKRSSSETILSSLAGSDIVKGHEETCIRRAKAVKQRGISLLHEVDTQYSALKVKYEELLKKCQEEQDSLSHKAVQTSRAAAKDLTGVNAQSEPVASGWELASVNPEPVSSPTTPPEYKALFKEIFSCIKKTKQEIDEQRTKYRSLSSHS

Row | Variant | effect of a mutation on the interaction
1 | N225D | with no effect

Variants of: B1
Settings: with traf2_human TRAF2, Q12933
traf2_human TRAF2, Q12933, sequence (Q12933 whole entry): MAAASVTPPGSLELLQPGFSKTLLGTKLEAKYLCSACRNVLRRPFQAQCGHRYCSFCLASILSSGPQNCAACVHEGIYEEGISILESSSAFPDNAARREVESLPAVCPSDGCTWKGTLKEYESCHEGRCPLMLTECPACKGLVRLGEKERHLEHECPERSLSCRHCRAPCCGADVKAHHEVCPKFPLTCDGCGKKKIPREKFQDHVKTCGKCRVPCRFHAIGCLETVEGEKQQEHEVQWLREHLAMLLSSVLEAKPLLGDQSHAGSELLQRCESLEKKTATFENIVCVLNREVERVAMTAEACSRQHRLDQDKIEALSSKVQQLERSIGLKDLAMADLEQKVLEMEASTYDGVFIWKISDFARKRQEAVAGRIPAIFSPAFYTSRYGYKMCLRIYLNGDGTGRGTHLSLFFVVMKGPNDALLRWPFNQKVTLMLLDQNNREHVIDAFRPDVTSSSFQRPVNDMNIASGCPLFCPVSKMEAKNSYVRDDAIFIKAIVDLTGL

Row | Variant | effect of a mutation on the interaction
2 | N225D | with no effect

Variants of: B1
Settings: with KRT15, P19012
KRT15, P19012, sequence (P19012 whole entry): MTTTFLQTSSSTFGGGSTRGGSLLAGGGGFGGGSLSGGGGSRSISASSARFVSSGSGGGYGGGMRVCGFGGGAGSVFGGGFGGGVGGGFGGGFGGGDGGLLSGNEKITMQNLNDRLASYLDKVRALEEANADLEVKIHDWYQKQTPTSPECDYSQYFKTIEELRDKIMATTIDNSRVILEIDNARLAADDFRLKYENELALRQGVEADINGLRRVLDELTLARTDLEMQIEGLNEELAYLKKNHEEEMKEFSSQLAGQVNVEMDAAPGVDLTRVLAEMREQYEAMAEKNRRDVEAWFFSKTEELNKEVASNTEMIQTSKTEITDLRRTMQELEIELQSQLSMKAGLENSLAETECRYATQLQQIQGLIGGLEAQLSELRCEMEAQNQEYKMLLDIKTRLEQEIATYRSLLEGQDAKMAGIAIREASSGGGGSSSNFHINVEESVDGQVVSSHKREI

Row | Variant | effect of a mutation on the interaction
3 | N225D | with no effect

Variants of: B2
Settings: with dtnb_human DTNB

Row | Variant | effect of a mutation on the interaction
4 | E9K | with no effect
5 | H301P | with no effect

Variants of: B3
Settings: with srsf6_human SRSF6, Q13247
srsf6_human SRSF6, Q13247, sequence (Q13247 whole entry, looked up): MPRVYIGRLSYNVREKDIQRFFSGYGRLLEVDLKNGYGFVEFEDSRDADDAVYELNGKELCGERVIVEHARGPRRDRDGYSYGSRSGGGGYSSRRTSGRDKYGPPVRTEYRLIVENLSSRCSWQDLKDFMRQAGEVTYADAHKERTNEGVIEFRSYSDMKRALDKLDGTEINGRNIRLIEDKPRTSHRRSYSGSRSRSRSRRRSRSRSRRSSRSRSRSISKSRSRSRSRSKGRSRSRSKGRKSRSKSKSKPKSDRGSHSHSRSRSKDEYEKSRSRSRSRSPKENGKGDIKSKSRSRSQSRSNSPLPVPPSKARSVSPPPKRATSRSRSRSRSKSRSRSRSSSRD

Row | Variant | effect of a mutation on the interaction
6 | G338A | with no effect

Variants of: B4
Settings: with acy1_human ACY1, Q03154

Row | Variant | effect of a mutation on the interaction
7 | E381D | with no effect

Variants of: B5
Settings: with cdc7_human CDC7, O00311

Row | Variant | effect of a mutation on the interaction
8 | L306I | with no effect
9 | I526V | with no effect
10 | K579E | with no effect

Variants of: B6
Settings: with KRT13, P13646

Row | Variant | effect of a mutation on the interaction
11 | P11A | with no effect
